Key:
nucleolin (C23) [1] = molecular target: T1, nucleolin (C23) (UniProt P19338 2-710); experiment: EMSA
nucleolin (C23) [2] = molecular target: T1, nucleolin (C23); experiment: EMSA; remark: listed apart in the source
nucleolin (C23) [3] = molecular target: T1, nucleolin (C23); experiment: competition

T1 sequence (P19338 2-710): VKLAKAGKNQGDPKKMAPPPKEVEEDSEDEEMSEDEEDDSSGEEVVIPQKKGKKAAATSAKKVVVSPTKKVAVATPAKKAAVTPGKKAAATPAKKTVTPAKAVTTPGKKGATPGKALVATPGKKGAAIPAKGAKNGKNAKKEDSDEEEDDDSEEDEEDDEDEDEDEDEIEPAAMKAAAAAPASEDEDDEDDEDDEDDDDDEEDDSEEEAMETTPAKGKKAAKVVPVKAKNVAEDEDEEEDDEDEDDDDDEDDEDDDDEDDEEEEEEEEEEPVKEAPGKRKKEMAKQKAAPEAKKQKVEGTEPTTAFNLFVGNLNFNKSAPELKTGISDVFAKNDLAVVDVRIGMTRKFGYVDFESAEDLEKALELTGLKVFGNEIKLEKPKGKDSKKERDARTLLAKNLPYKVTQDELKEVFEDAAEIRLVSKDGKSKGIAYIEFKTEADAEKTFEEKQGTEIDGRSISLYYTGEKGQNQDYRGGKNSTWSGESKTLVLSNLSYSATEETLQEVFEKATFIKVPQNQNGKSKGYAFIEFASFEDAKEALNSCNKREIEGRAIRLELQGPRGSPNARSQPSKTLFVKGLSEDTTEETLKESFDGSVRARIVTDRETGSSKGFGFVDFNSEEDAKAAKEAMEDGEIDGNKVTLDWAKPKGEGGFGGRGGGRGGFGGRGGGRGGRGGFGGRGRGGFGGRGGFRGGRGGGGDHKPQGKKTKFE

## TTGGGCGGGCCGGGGGCGGG (structured_DNA) [VEGF G4]
Nucleolin (C23) [1]
  binding result: binds

## UGCUUACGUAGCGUGCCUUA (ssRNA) [ssRNA 2]
Nucleolin (C23) [2]
  binding result: binds

## TTGGGCGGGCCGGGGGCGGG (structured_DNA) [VEGF G4 (unlabelled)]
Nucleolin (C23) [3]
  binding result: binds

Reference: article PMC12421323
